Laboratory results from article PMC2212291.

What follows are substances tested against mouse class I molecule H-2 D^b (mouse | mouse (endogenous in MC57)).

| Substance | binding plus extraction efficiency [%] |
| --- | --- |
| synthetic LCMV peptide GP33-41 | 17 |
| synthetic LCMV peptide NP396-404 | 50 |
| synthetic LCMV peptide GP276-286 | 38 |
